Test results published in patent US20180244738A1.

Biological target: NuRD complex (nucleosome remodeling and deacetylase corepressor complex)
Assay: cell-based or functional assay

tumor cell senescence (SA-β-Gal+ cells) in transfected MCF-7 and E0771 cells, 3 days: 40%
Substance: full-length SALL1, wild-type (transfected, pcDNA3.1-SALL1) (from UniProt Q9NSC2 1-1324)
